Assay results from patent US7226791B2, “Polynucleotides encoding novel guanylate binding proteins (GBP's)” (Bristol-Myers Squibb Company, priority 2003, dated 2007).

T1: GBP-1 (Homo sapiens, UniProt P32455)
T1 sequence (P32455 1-592): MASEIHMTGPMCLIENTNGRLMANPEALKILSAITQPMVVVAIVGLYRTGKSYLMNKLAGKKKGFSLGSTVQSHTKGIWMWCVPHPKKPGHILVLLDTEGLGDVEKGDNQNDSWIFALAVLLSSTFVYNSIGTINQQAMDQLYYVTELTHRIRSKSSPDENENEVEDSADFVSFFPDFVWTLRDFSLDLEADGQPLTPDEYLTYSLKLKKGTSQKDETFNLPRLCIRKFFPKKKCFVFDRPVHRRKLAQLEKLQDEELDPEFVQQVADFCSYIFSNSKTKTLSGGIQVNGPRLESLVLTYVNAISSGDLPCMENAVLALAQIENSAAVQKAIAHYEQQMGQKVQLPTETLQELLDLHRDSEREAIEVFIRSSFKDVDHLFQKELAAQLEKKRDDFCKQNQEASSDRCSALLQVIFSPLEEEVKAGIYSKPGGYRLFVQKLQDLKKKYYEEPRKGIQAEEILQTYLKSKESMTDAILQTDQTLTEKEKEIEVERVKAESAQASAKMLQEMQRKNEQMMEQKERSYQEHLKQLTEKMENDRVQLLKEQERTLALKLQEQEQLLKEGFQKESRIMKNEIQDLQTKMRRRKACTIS

B1: FLJ10961: human guanylate binding protein HGBPBMY4, AA SEQ ID NO:9 (protein, listed as Homo sapiens)
chain: MAPEIHMTGPMCLIENTNGELVANPEALKILSAITQPVVVVAIVGLYRTGKSYLMNKLAGKNKGFSLGSTVKSHTKGIWMWCVPHPKKPEHTLVLLDTEGLGDVKKGDNQNDSWIFTLAVLLSSTLVYNSMGTINQQAMDQLYYVTELTHRIRSKSSPDENENEDSADFVSFFPDFVWTLRDFSLDLEADGQPLTPDEYLEYSLKLTQGNRKLAQLEKLQDEELDPEFVQQVADFCSYIFSNSKTKTLSGGIKVNGPCLESLVLTYINAISRGDLPCMENAVLALAQIENSAAVQKAIAHYDQQMGQKVQLPAETLQELLDLHRVSEREATEVYMKNSFKDVDHLFQKKLAAQLDKKRDDFCKQNQEASSDRCSALLQVIFSPLEEEVKAGIYSKPGGYCLFIQKLQDLEKKYYEEPRKGIQAEEILQTYLKSKESVTDAILQTDQILTEKEKEIEVECVKAESAQASAKMVEEMQIKYQQMMEEKEKSYQEHVKQLTEKMERERAQLLEEQEKTLTSKLQEQARVLKERCQGESTQLQNEIQKLQKTLKKKTKRYMSHKLKI
B2: AK096141: human guanylate binding protein HGBPBMY1, AA SEQ ID NO:3 (protein, listed as Homo sapiens)
chain: MASEIHMPGPVCLIENTKGHLVVNSEALEILSAITQPVVVVAIVGLYRTGKSYLMNKLAGKNKGFPLGCTVKSETKGIWMWCVPHPSKPNHTLILLDTEGLGDMEKSDPKSDSWIFALAVLLSSSFVYNSMGTINHQALEQLHYVTELTELIRAKSCPRPDEVEDSSEFVSFFPDFIWTVRDFTLELKLDGHPITEDEYLENALKLISGKNPQIQNSNKPREWIRHFFPKQKCFVFDRPINDKKLLLHVEEVREDQLDSNFQMQSENFCSYIFTHAKTKTLREGILVTGNRLGMLVETYLDAINSGATPCLENAMAVLAQCENSAAVQRAANHYSQQMAQQVRFPTDTLQELLDVHAVCEREAIAVFMEYSFKDKSQEFQKKLVDTMEKKKEDFVLQNEEASAKYCQAELKRLSELLTESISRGTFFVPGGHNIYLEAKKKIEQDYTLVPRKGVKADEVLQSFLQSQVVIEESILQSDKALTAGEKAIAAKQAKKEAAEKEQELLRQKQKEQQQMMEAQERSFQENIAQLKKKMERERENYMRELRKMLSHKMKVLEELLTEGFKEIFESLNEEINRLKEQIEAAENEEPSVFSQILDVAGSIFIAALPGAAKLVDLGMKILSSLCNRLRNPGKKIIS
B3: 4843—1: human guanylate binding protein HGBPBMY2, AA SEQ ID NO:5 (protein, listed as Homo sapiens)
chain: MESGPKMLAPVCLVENNNEQLLVNQQAIQILEKISQPVVVAIVGLYRTGKSYLMNHLAGQNHGFPLGSTVQSETKGIWMWCVPHPSKPNHTLVLLDTEGLGDVEKGDPKNDSWIFALAVLLCSTFVYNSMSTINHQALEQLHYVTELTELIKAKSSPRPDGVEDSTEFVSFFPDFLWTVRDFTLELKLNGHPITEDEYLENALKLIQGNNPRVQTSNFPRECIRRFLPKRKCFVFDRPTNDKDLLANIEKVSEKQLDPKFQEQTNIFCSYIFTHARTKTLREGITVTGNRLGTLAVTYVEAINSGAVPCLENAVITLAQRENSAAVQRASDYYSQQMAQRVKFPTDTLQELLDVHAACEREAIAIFMEHSFKDENQEFQKKFMETTMNKKGDFLLQNEESSVQYCQAKLNELSKGLMESISAGSFSVPGGHKLYMETKERIEQDYWQVPRKGVKAKEVFQRFLESQMVIEESILQSDKALTDREKAVAVDRAKKEAAEKEQELLKQKLQEQQQQMEAQVKSRKENIAQLKEKLQMEREHLLREQIMMLEHTQKVQNDWLHEGFKKKYEEMNAEISQFKRMIDTTKNDDTPWIARTLDNLADELTAILSAPAKLIGHGVKGVSSLFKKHKLPFKGGRADPAFLYKVVDLEGPRFEQKLISEEDLNMHTGHHHHHH

What was measured:
GBP-1 [1] = target: T1, GBP-1; conditions: purified GBP-1 protein, GTP hydrolysis; read-out: Km for substrate; cited from earlier work
GBP-1 [2] = assay: siRNA knockdown of GBP-1 protein expression in Cos-7 cells, myc western blot; format: cell-based; conditions: Cos-7 cells co-transfected with GBP-1 expression vector, 40 nM siRNA duplex; FIG. 50A
Experimental: (§1) To test for knockdown of protein expression using siRNAs, Cos-7 cells were transfected as described herein with expression vectors encoding either GBP-1 or GBP-2 in the presence and absence of 40 nM siRNA duplex specific for either GBP-1 (“1–3”, […], (SEQ ID NO:79), Qiagen, Inc.) or GBP-2 (“582”, […] (SEQ ID NO:80), Sequitur Inc., Natick, Mass.). Approximately 18 hours following transfection, cells were harvested using trypsin, and lysed in RIPA buffer as described previously. Lysates were electrophoresed through 4–20% tris-glycine gels, transferred to nitrocellulose, blocked overnight with 5% non-fat dry milk and 0.3% BSA in Tris-buffered saline, and probed with a mouse monoclonal antibody specific for the myc epitope tag.

MCP-1 = assay: TNFα-induced MCP-1 expression in human umbilical vein endothelial cells, ELISA; format: cell-based; conditions: HUVECs, 100 nM siRNA duplexes, 6 hours 10 ng/ml TNFα; FIG. 50B
Experimental: (§2) In some experiments, human umbilical vein endothelial cells (HUVECs, Clonetics Corp., San Diego, Calif., USA) were transfected using lipofectamine 2000 with 100 nM siRNA duplexes. Cells were cultured overnight, and then stimulated for 6 hours with 10 ng/ml TNFα. Supernatants were analyzed for MCP-1 and IL-8 levels by ELISA (Pharmingen, San Diego, Calif., USA). Cytokine levels were corrected for cell number using the CELL TITER kit (Promega).

IL-8 = assay: TNFα-induced IL-8 secretion in human umbilical vein endothelial cells, ELISA; format: cell-based; conditions: HUVECs, 100 nM siRNA duplexes, 6 hours 10 ng/ml TNFα
Experimental: as §2

GBP-2 = assay: siRNA knockdown of GBP-2 protein expression in Cos-7 cells, myc western blot; format: cell-based; conditions: Cos-7 cells co-transfected with GBP-2 expression vector, 40 nM siRNA duplex; FIG. 50A
Experimental: as §1

[3] = Guanine nucleotide binding: Cos-7 lysates on agarose coated with GTP, myc western blot; conditions: myc-tagged protein expressed in Cos-7 cells; FIG. 49
Experimental: (§3) Genes encoding different GBP family members were cloned into the vector pcDNA3.1mychis (Invitrogen) for expression in mammalian cells. Cos-7 cells were transfected with 5 μg of DNA per group using lipofectamine 2000 (Invitrogen) according to manufacturer's instructions. Approximately 18 hours after transfection, the cells were harvested using trypsin and lysed in RIPA buffer (10 mM sodium phosphate pH 7.2, 0.25 M sodium chloride, 0.1% SDS, 1% NP40, 1% sodium deoxycholate, 2 mM EDTA, protease inhibitor cocktail). An aliquot of the lysate was reserved for the whole cell lysate sample. The remainder was divided in thirds, and incubated for three hours at 4° C. with agarose coated with either GTP, GDP, or GMP (Sigma Chemical Company). The beads were pelleted, washed with buffer (0.1% NP40, 150 mM NaCl, 50 mM Tris pH7.5), and resuspended in SDS sample buffer. Samples were electrophoresed through 4–20% tris-glycine gels, transferred to nitrocellulose, blocked overnight with 5% non-fat dry milk and 0.3% BSA in Tris-buffered saline, and probed with a mouse monoclonal antibody specific for the myc epitope tag (Invitrogen).

[4] = Guanine nucleotide binding: Cos-7 lysates on agarose coated with GDP, myc western blot; conditions: myc-tagged protein expressed in Cos-7 cells; FIG. 49
Experimental: as §3

[5] = Guanine nucleotide binding: Cos-7 lysates on agarose coated with GMP, myc western blot; conditions: myc-tagged protein expressed in Cos-7 cells; FIG. 49
Experimental: as §3

Molecule | inhibition of TNFα-induced MCP-1 expression (MCP-1) | inhibition of IL-8 secretion (IL-8) | binding to GTP agarose beads [3] | binding to GDP agarose beads [4] | binding to GMP agarose beads [5] | other results
Nc1nc2c(ncn2[C@@H]2O[C@H](COP(=O)(O)OP(=O)(O)OP(=O)(O)O)[C@@H](O)[C@H]2O)c(=O)[nH]1 [GTP] | – | – | – | – | – | Km (GBP-1 [1]): 470 µM
GCUCGAGAAACUACAAGAUTT, (SEQ ID NO:79) [1–3] | 70% | failed to inhibit | – | – | – | knockdown of GBP-1 protein expression (GBP-1 [2]): specific knockdown
UUUGUAUUUCCUCCAACAUTT (SEQ ID NO:80) (chemistry not given here; listed as Homo sapiens) [Compound 582] | approximately 40% | failed to inhibit | – | – | – | knockdown of GBP-2 protein expression (GBP-2): specific knockdown
B1 | – | – | weakly | bound well | bound well | –
B2 | – | – | not at all | bound weakly | bound weakly | –
B3 | – | – | did not bind | did not bind | did not bind | –
